Results: patent US20250388669A1 (published 2025)

T1: CD19 (UniProt P15391 20-556, limits assumed)
T1 construct: whole, on cells
T1 sequence (looked up): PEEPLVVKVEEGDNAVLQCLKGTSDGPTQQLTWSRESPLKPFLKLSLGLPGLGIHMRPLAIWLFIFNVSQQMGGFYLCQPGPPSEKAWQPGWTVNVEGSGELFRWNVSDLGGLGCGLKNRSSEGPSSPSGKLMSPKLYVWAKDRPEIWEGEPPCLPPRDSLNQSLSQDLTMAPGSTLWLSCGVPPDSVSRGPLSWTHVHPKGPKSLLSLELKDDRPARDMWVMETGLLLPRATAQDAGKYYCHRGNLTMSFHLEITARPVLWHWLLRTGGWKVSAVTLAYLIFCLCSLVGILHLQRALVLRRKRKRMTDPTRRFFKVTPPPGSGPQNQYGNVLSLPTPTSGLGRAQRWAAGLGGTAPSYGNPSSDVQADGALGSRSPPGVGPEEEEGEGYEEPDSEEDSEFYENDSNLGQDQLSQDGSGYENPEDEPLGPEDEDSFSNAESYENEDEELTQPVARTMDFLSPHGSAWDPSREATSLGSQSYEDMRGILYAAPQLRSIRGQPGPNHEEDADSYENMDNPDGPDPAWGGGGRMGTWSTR

T2: B7H3 (UniProt Q5ZPR3 29-466, limits assumed)
T2 sequence (looked up): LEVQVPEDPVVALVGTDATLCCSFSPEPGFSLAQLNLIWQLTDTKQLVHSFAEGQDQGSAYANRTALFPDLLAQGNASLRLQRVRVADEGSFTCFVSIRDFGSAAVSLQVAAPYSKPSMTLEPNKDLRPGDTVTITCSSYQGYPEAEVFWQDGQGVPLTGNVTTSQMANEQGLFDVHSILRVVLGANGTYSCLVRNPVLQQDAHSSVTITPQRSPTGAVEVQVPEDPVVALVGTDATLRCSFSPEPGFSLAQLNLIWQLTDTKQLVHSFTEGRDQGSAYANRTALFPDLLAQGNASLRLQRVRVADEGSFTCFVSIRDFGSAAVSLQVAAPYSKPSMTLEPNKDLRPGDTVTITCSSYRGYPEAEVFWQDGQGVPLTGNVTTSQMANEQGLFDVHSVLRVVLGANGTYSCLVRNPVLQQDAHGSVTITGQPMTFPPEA


What was measured:
CD137 = target: T3, CD137 (UniProt Q07011 24-186, limits assumed); assay: FCM or ELISA (graded summary table)
T3 construct: also called 4-1BB

CD19 = target: T1, CD19; assay: FCM or ELISA (graded summary table)
CD40 = CD40 (UniProt P25942 21-193, limits assumed); assay: FCM or ELISA, graded
Chain of CD40 (P25942 21-193 limits assumed): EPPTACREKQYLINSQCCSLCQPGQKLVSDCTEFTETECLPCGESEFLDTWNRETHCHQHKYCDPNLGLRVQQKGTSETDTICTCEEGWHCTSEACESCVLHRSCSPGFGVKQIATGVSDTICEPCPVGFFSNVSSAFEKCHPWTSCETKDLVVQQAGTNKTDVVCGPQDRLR

PD-1 (binding assay) = PD-1 (binding assay) (UniProt Q15116 25-167, limits assumed); assay: FCM or ELISA, graded
Chain of PD-1 (binding assay) (Q15116 25-167 limits assumed): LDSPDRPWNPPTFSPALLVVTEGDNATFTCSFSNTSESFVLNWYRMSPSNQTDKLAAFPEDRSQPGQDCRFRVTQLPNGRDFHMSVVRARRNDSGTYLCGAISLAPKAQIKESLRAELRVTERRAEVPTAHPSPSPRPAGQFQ

B7H3 = target: T2, B7H3; assay: FCM or ELISA (graded summary table)

Binder	binding result (CD137)	binding result (CD19)	binding result (CD40)	binding result (PD-1 (binding assay))	binding result (B7H3)
Ly2326 (bispecific antibody, human IgG1, kappa, Bispecific CD19 (two Fabs) / CD137 (terminal Fv)) chain 1: QVQLQQSGAELVRPGSSVKISCKASGYAFSSYWMNWVKQRPGQGLEWIGQIWPGDGDTNYNGKFKGKATLTADESSSTAYMQLSSLASEDSAVYFCARRETTTVGRYYYAMDYWGQGTTVTVSSASTKGPSVFPLAPSSKSTSGGTAALGCLVKDYFPEPVTVSWNSGALTSGVHTFPAVLQSSGLYSLSSVVTVPSSSLGTQTYICNVNHKPSNTKVDKKVEPKSCDKTHTCPPCPAPEAAGPSVFLFPPKPKDTLMISRTPEVTCVVVDVSHEDPEVKFNWYVDGVEVHNAKTKPREEQYNSTYRVVSVLTVLHQDWLNGKEYKCKVSNKALPAPIEKTISKAKGQPREPQVYTLPPSREEMTKNQVSLWCLVKGFYPSDIAVEWESNGQPENNYKTTPPVLDSDGSFFLYSKLTVDKSRWQQGNVFSCSVMHEALHNHYTQKSLSLSPGGGGGSGGGGSGGGGSGGGGSQVQLVQSGAEVKKPGASVKVSCKASGYTFAGFEMHWVRQAPGQGLEWMGAIDPKTGGTDYNQKFKDRVTMTRDTSISTAYMELSRLRSDDTAVYYCARDLGYFDVWGQGTLVTVSS chain 2: QVQLQQSGAELVRPGSSVKISCKASGYAFSSYWMNWVKQRPGQGLEWIGQIWPGDGDTNYNGKFKGKATLTADESSSTAYMQLSSLASEDSAVYFCARRETTTVGRYYYAMDYWGQGTTVTVSSASTKGPSVFPLAPSSKSTSGGTAALGCLVKDYFPEPVTVSWNSGALTSGVHTFPAVLQSSGLYSLSSVVTVPSSSLGTQTYICNVNHKPSNTKVDKKVEPKSCDKTHTCPPCPAPEAAGPSVFLFPPKPKDTLMISRTPEVTCVVVDVSHEDPEVKFNWYVDGVEVHNAKTKPREEQYNSTYRVVSVLTVLHQDWLNGKEYKCKVSNKALPAPIEKTISKAKGQPREPQVYTLPPSREEMTKNQVSLSCAVKGFYPSDIAVEWESNGQPENNYKTTPPVLDSDGSFFLVSKLTVDKSRWQQGNVFSCSVMHEALHNRFTQKSLSLSPGGGGGSGGGGSGGGGSGGGGSDIQMTQSPSSLSASVGDRVTITCRASQDIRSNLNWYQQKPGGAVKLLIYYTSRLHSGVPSRFSGSGSGTDYTLTISSLQPEDFATYFCQQSEKLPRTFGGGTKVEIR light: not shown	binds	binds	–	–	–
Ly2405 (bispecific antibody, human IgG1, kappa, PD-1 Fabs (Ly516) x terminal CD40 Fv (TM383)) heavy 1: not shown heavy 2: QVTLKESGPALVKPTQTLTLTCTFSGFSLSTSGTCVSWIRQPPGKALEWLATICWEDSKGYNPSLKSRLTISKDTSKNQAVLTMTNMDPVDTATYYCARREDSGYFWFPYWGQGTLVTVSSASTKGPSVFPLAPSSKSTSGGTAALGCLVKDYFPEPVTVSWNSGALTSGVHTFPAVLQSSGLYSLSSVVTVPSSSLGTQTYICNVNHKPSNTKVDKKVEPKSCDKTHTCPPCPAPEAAGPSVFLFPPKPKDTLMISRTPEVTCVVVDVSHEDPEVKFNWYVDGVEVHNAKTKPREEQYNSTYRVVSVLTVLHQDWLNGKEYKCKVSNKALPAPIEKTISKAKGQPREPQVYTLPPSREEMTKNQVSLSCAVKGFYPSDIAVEWESNGQPENNYKTTPPVLDSDGSFFLVSKLTVDKSRWQQGNVFSCSVMHEALHNRFTQKSLSLSPGGGGGSGGGGSGGGGSGGGGSDIQMTQSPSSVSASVGDRVTITCRASQGIYSWLAWYQQKPGKAPNLLIYTASTLQSGVPSRFSGSGSGTDFTLTISSLQPEDFATYYCQQANIFPLTFGGGTKVEIK light: NIQMTQSPSSLSASVGDRVTITCKAGQNVNNYLAWYQQKPGKAPKVLIFNANSLQTGVPSRFSGSGSGTDFTLTISSLQPEDFATYYCQQYNSWPTFGGGTKVEIKRTVAAPSVFIFPPSDEQLKSGTASVVCLLNNFYPREAKVQWKVDNALQSGNSQESVTEQDSKDSTYSLSSTLTLSKADYEKHKVYACEVTHQGLSSPVTKSFNRGEC	–	–	binds	binds	–
Ly2409 (bispecific antibody, PD-1 Fabs (Ly516) x central CD40 Fv (TM559)) heavy 1: QVTLKESGPALVKPTQTLTLTCTFSGFSLSTSGTCVSWIRQPPGKALEWLATICWEDSKGYNPSLKSRLTISKDTSKNQAVLTMTNMDPVDTATYYCARREDSGYFWFPYWGQGTLVTVSSASTKGPSVFPLAPSSKSTSGGTAALGCLVKDYFPEPVTVSWNSGALTSGVHTFPAVLQSSGLYSLSSVVTVPSSSLGTQTYICNVNHKPSNTKVDKKVEPKSCGGGGSGGGGSGGGGSGGGGSEVQLVESGGGLVQPGGSLRLSCAASGFTFTNYGLHWVRQAPGKGLEWVSSISPSGGVTYYRDSVKGRFTISRDNSKNTLYLQMNSLRAEDTAVYYCAKPFLGWGGANWIAHWGQGTLVTVSSGGGGSDKTHTCPPCPAPEAAGPSVFLFPPKPKDTLMISRTPEVTCVVVDVSHEDPEVKFNWYVDGVEVHNAKTKPREEQYNSTYRVVSVLTVLHQDWLNGKEYKCKVSNKALPAPIEKTISKAKGQPREPQVYTLPPSREEMTKNQVSLWCLVKGFYPSDIAVEWESNGQPENNYKTTPPVLDSDGSFFLYSKLTVDKSRWQQGNVFSCSVMHEALHNHYTQKSLSLSPG heavy 2: QVTLKESGPALVKPTQTLTLTCTFSGFSLSTSGTCVSWIRQPPGKALEWLATICWEDSKGYNPSLKSRLTISKDTSKNQAVLTMTNMDPVDTATYYCARREDSGYFWFPYWGQGTLVTVSSASTKGPSVFPLAPSSKSTSGGTAALGCLVKDYFPEPVTVSWNSGALTSGVHTFPAVLQSSGLYSLSSVVTVPSSSLGTQTYICNVNHKPSNTKVDKKVEPKSCGGGGSGGGGSGGGGSGGGGSDIQMTQSPSSLSASVGDRVTITCLASEDISNDLAWYQQKPGKAPKLLIYFVDRLLDGVPSRFSGSGSGTDFTLTISSLQPEDFATYYCQQSYKYPPTFGQGTKLEIKGGGGSDKTHTCPPCPAPEAAGPSVFLFPPKPKDTLMISRTPEVTCVVVDVSHEDPEVKFNWYVDGVEVHNAKTKPREEQYNSTYRVVSVLTVLHQDWLNGKEYKCKVSNKALPAPIEKTISKAKGQPREPQVYTLPPSREEMTKNQVSLSCAVKGFYPSDIAVEWESNGQPENNYKTTPPVLDSDGSFFLVSKLTVDKSRWQQGNVFSCSVMHEALHNRFTQKSLSLSPG light: NIQMTQSPSSLSASVGDRVTITCKAGQNVNNYLAWYQQKPGKAPKVLIFNANSLQTGVPSRFSGSGSGTDFTLTISSLQPEDFATYYCQQYNSWPTFGGGTKVEIKRTVAAPSVFIFPPSDEQLKSGTASVVCLLNNFYPREAKVQWKVDNALQSGNSQESVTEQDSKDSTYSLSSTLTLSKADYEKHKVYACEVTHQGLSSPVTKSFNRGEC	–	–	binds	binds	–
Ly1965 (bispecific antibody, Bispecific B7H3 (two Fabs) / CD3 (central Fv)) chain 1: QVQLVQSGAEVKKPGASVKVSCKASGYTFTSYVMHWVRQKPGQGLEWIGYINPYNEGTESTDKFKGRATMTSDKSTSTVYMELSSLRSEDTAVYYCASIYYGYEGTYFGVWGQGTLVTVSSASTKGPSVFPLAPSSKSTSGGTAALGCLVKDYFPEPVTVSWNSGALTSGVHTFPAVLQSSGLYSLSSVVTVPSSSLGTQTYICNVNHKPSNTKVDKKVEPKSCGGGGSGGGGSGGGGSGGGGSEVQLVESGGGLVQPGGSLRLSCAASGFTFSTYAMNWVRQAPGKGLEWVGRIRSKYNNYATYYADSVKGRFTISRDDSKNSLYLQMNSLKTEDTAVYYCVRHGNFGNSYVSWFAYWGQGTLVTVSSGGGGSDKTHTCPPCPAPEAAGPSVFLFPPKPKDTLMISRTPEVTCVVVDVSHEDPEVKFNWYVDGVEVHNAKTKPREEQYNSTYRVVSVLTVLHQDWLNGKEYKCKVSNKALPAPIEKTISKAKGQPREPQVYTLPPSREEMTKNQVSLWCLVKGFYPSDIAVEWESNGQPENNYKTTPPVLDSDGSFFLYSKLTVDKSRWQQGNVFSCSVMHEALHNHYTQKSLSLSPG chain 2: QVQLVQSGAEVKKPGASVKVSCKASGYTFTSYVMHWVRQKPGQGLEWIGYINPYNEGTESTDKFKGRATMTSDKSTSTVYMELSSLRSEDTAVYYCASIYYGYEGTYFGVWGQGTLVTVSSASTKGPSVFPLAPSSKSTSGGTAALGCLVKDYFPEPVTVSWNSGALTSGVHTFPAVLQSSGLYSLSSVVTVPSSSLGTQTYICNVNHKPSNTKVDKKVEPKSCGGGGSGGGGSGGGGSGGGGSQAVVTQEPSLTVSPGGTVTLTCRSSTGAVTTSNYANWVQQKPGQAPRGLIGGTNKRAPWTPARFSGSLLGGKAALTITGAQAEDEADYYCALWYSNLWVFGGGTKLTVLGGGGSDKTHTCPPCPAPEAAGPSVFLFPPKPKDTLMISRTPEVTCVVVDVSHEDPEVKFNWYVDGVEVHNAKTKPREEQYNSTYRVVSVLTVLHQDWLNGKEYKCKVSNKALPAPIEKTISKAKGQPREPQVYTLPPSREEMTKNQVSLSCAVKGFYPSDIAVEWESNGQPENNYKTTPPVLDSDGSFFLVSKLTVDKSRWQQGNVFSCSVMHEALHNRFTQKSLSLSPG light: EIVLTQSPATLSLSPGERATLSCRASSSVSYMHWYQQKPGQAPRPWIYATSNLASGIPARFSGSRSGTDYTLTISSLEPEDFAVYYCQQWSSNTLTFGGGTKVEIKRTVAAPSVFIFPPSDEQLKSGTASVVCLLNNFYPREAKVQWKVDNALQSGNSQESVTEQDSKDSTYSLSSTLTLSKADYEKHKVYACEVTHQGLSSPVTKSFNRGEC	–	–	–	–	binds
